From article PMC3961337, “FRET-Based System for Probing Protein-Protein Interactions between σ^R and RsrA from Streptomyces Coelicolor in Response to the Redox Environment” (PLoS ONE, 2014)

Experiments:
Conditions in all cases: both partners purified
[1] = target: T1, sigR-yfp-pET28a (+) protein (SYP) (S. coelicolor M145, UniProt Q7AKG9 1-227, biotinylated for the biolayer interferometry only); experiment: FRET or BRET; FRET efficiency titration: increasing SYP (or YFP) from 0.1 nM to 0.85 μM added to a determined concentration of RCP in binding buffer with 2.5 mM DTT; single-site binding curve
T1 construct: ECF sigma factor σR (SigR) of Streptomyces coelicolor, amplified from the M145 genome with primers sigRC and sigRD; the primers encode M-G-T-G-T-D-A at the start (after the NcoI site) and K-G-S-G-S before the HindIII site (worked out from the primers); σR, then K-L (HindIII site) and G-G-S, then YFP from M-V-S-K-G to M-D-E-L-Y-K (worked out from primers yfpC and yfpD), cloned NcoI/HindIII/XhoI in …

[2] = target: T2, SYP with the histidine tag removed by thrombin (zinc function assay) (S. coelicolor M145, UniProt Q7AKG9 1-227); experiment: FRET or BRET; zinc function assay, Zn-sample (500 μM ZnSO4) after removal of DTT and addition of 1 mM diamide; FRET ratio emission 528 nm/478 nm
T2 construct: ECF sigma factor σR (SigR) of Streptomyces coelicolor, amplified from the M145 genome with primers sigRC and sigRD; the primers encode M-G-T-G-T-D-A at the start (after the NcoI site) and K-G-S-G-S before the HindIII site (worked out from the primers); Same construct as m3 after thrombin; not shown: YFP (after a glycine-glycine-serine linker), C-terminal, kept; His tag, N-terminal, cleaved

[3] = target: T2, SYP with the histidine tag removed by …; experiment: FRET or BRET; zinc function assay, apo-sample: His tags removed by thrombin, zinc removed with 5 mM EDTA; SYP and RCP at the same concentration, no ZnSO4; FRET ratio emission 528 nm/478 nm
[4] = target: T2, SYP with the histidine tag removed by …; experiment: FRET or BRET; zinc function assay with ZnSO4: His tags removed by thrombin; increasing ZnSO4 added to the mixture (Fig. 4A) and 500 μM ZnSO4 for the spectra (Fig. 4B); FRET ratio emission 528 nm/478 nm

T2 sequence (Q7AKG9 whole entry): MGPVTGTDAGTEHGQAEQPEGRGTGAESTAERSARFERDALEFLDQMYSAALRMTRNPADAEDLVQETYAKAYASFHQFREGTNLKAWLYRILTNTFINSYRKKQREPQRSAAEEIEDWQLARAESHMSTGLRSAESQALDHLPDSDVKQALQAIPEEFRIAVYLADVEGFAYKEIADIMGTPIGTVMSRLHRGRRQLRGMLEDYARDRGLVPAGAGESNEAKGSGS
T1 sequence (Q7AKG9 whole entry): as above

Row | Kd [1] [nM] | FRET ratio (emission 528 nm/478 nm), Zn-sample with diamide [2] | FRET ratio (emission 528 nm/478 nm), no ZnSO4 added [3] | FRET ratio (emission 528 nm/478 nm), with 500 μM ZnSO4 [4] | Binder
1 | 81 ± 29 | – | – | – | rsrA-cfp-pET28a (+) protein (RCP) (natural protein, S. coelicolor M145, UniProt Q7AKG8 1-105, looked up, anti-sigma factor RsrA of Streptomyces coelicolor, amplified from the M145 genome with primers rsrAA and rsrAB; RsrA, then E-F (EcoRI site) and G-G-S, then CFP from M-V-S-K-G to M-D-E-L-Y-K (worked out from primers cfpA and cfpB), cloned NcoI/EcoRI/HindIII in pET28a (+); source: E. coli BL21 (DE3), purified (Ni-NTA); also co-expressed with SYP in E. coli BL21 (DE3) cells, unpurified; not shown: …) MSCGEPHETDCSEILDHLYEFLDKEMPDSDCVKFEHHFEECSPCLEKYGLEQAVKKLVKRCCGQDDVPGDLRAKVMGRLDLIRSGQSVPEHDVAAAPSSSAPQES
2 | – | 2.2 | 2.3 | 2.8 | RCP with the histidine tag removed by thrombin (zinc function assay) (natural protein, S. coelicolor M145, UniProt Q7AKG8 1-105, looked up, anti-sigma factor RsrA of Streptomyces coelicolor, amplified from the M145 genome with primers rsrAA and rsrAB; Same construct as m4 after thrombin; Zinc removed with EDTA (apo-RCP); Zn-RCP is the same protein with 500 uM ZnSO4 added; also called apo-RCP; Zn-RCP; not shown: CFP (after a glycine-glycine-serine linker), C-terminal, kept; His tag, N-terminal, cleaved) MSCGEPHETDCSEILDHLYEFLDKEMPDSDCVKFEHHFEECSPCLEKYGLEQAVKKLVKRCCGQDDVPGDLRAKVMGRLDLIRSGQSVPEHDVAAAPSSSAPQES
